One block for each substance: values may come before it.
Legend:
[1] = biological target: GST-tag DNA polymerase β, full-length (1–335 amino acids) (UniProt P06746); assay: SPR; Biacore X-100, 25 °C; GST-tag polβ or APE1 immobilised on CM5 chip (EDC/NHS, 10 mM sodium acetate pH 4.0), his-tag LIG1 or LIGIIIα proteins as analytes; 10 mM Hepes pH 7.4, 150 mM NaCl, 3 mM EDTA, 0.005% P20; 1:1 (Langmuir) model; polβ truncated mutants (Fig. S2) tested likewise, orientation not given
[2] = biological target: Polβ C-terminal (92–335 amino acids) (UniProt P06746); assay: as above
[3] = biological target: Polβ N-terminal (1–92 amino acids) (UniProt P06746); assay: as above
[4] = biological target: Apurinic/apyrimidinic-endonuclease 1 (UniProt P27695); assay: as above
[5] = biological target: Polβ C-terminal (92–335 amino acids), as used in SPR (UniProt P06746); assay: SPR; Supplementary Figures 2 and 3; partner immobilised on the CM5 chip not given; Biacore X-100, 25 °C; 10 mM Hepes pH 7.4, 150 mM NaCl, 3 mM EDTA, 0.005% surfactant P20; 1:1 (Langmuir) fit
[6] = biological target: GST-tag APE1 full-length (apurinic/apyrimidinic-endonuclease 1) (UniProt P27695); assay: SPR; GST-tag polβ or APE1 immobilised on CM5 chip (EDC/NHS), his-tag LIG1 or LIGIIIα passed as analyte; Biacore X-100, 25 °C; 10 mM Hepes pH 7.4, 150 mM NaCl, 3 mM EDTA, 0.005% surfactant P20; 1:1 (Langmuir) fit
[7] = biological target: GST-tag polβ full-length (DNA polymerase β, 1–335 amino acids) (UniProt P06746); assay: as above
[8] = biological target: GST-tag polβ full-length (DNA polymerase β, 1–335 amino acids) (UniProt P06746); assay: SPR; Supplementary Figures 2 and 3; partner immobilised on the CM5 chip not given; Biacore X-100, 25 °C; 10 mM Hepes pH 7.4, 150 mM NaCl, 3 mM EDTA, 0.005% surfactant P20; 1:1 (Langmuir) fit
[9] = biological target: His-tag LIGIIIα full-length (DNA ligase IIIα, 1–922 amino acids); assay: as above

Chain of GST-tag APE1 full-length (apurinic/apyrimidinic-endonuclease 1) (P27695 whole entry, the tested form may be a part): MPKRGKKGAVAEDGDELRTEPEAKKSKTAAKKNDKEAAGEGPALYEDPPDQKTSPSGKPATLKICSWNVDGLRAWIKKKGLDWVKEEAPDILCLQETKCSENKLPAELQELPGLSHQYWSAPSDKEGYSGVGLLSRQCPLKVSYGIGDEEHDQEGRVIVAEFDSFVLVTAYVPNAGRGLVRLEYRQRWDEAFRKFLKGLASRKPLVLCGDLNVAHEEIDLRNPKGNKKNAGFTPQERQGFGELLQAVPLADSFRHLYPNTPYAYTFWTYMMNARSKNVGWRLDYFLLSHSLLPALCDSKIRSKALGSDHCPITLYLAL
Chain of Apurinic/apyrimidinic-endonuclease 1 (P27695 whole entry, the tested form may be a part): as above
Chain of poly (ADP-ribose) polymerase 1 (PARP1), his-tag (P09874 whole entry): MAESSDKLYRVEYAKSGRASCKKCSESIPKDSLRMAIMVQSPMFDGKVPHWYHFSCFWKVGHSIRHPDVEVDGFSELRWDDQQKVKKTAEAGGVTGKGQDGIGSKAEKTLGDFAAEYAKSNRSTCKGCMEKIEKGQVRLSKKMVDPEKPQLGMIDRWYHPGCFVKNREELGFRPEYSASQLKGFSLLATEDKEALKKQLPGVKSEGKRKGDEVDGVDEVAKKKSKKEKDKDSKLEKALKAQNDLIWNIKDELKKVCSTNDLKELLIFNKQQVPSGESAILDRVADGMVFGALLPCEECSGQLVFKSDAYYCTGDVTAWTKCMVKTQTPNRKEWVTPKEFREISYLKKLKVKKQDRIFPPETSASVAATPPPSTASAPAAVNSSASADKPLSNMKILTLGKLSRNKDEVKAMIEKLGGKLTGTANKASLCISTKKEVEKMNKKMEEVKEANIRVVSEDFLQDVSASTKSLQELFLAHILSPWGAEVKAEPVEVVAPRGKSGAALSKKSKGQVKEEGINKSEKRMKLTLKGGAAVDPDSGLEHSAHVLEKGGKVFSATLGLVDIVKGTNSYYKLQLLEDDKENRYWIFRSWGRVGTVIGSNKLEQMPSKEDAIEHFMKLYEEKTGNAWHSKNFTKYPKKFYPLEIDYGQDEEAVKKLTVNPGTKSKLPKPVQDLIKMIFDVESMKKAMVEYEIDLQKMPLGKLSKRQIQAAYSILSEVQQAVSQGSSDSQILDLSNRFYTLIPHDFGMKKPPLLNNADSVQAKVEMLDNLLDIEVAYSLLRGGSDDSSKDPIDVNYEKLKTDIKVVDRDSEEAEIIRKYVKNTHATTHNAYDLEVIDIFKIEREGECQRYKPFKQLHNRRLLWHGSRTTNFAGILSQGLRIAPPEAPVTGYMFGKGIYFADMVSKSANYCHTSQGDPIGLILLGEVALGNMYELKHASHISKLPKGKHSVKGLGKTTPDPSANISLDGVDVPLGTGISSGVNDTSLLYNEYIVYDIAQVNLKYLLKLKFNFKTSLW
Chain of X-ray repair crosscomplementing protein 1 (XRCC1), his-tag (P18887 whole entry): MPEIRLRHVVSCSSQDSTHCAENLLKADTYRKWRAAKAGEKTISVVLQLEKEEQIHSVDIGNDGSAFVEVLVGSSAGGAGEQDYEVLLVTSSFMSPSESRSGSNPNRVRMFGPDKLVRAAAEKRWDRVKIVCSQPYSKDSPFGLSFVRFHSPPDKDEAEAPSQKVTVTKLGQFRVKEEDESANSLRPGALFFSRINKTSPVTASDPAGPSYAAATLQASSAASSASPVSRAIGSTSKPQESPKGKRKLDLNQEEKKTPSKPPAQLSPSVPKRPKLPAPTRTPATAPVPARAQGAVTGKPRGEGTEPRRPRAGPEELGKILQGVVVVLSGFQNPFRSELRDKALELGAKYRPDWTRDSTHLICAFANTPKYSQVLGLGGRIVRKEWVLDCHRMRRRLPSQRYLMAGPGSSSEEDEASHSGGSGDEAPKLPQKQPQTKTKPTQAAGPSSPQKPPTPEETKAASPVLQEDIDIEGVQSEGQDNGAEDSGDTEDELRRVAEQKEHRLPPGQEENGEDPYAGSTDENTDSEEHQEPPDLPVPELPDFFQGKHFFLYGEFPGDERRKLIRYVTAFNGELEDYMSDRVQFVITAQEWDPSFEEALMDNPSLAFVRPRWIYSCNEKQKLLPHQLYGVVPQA

Kd [1]: 7 nM
fold reduction of binding against the full-length proteins [2]: 500 fold
Kd [3]: 32 nM
Kd [4]: 3.3 nM
Substance: DNA ligase IIIα full-length (1–922 amino acids) (enzyme)

Kd [1]: 520 nM
fold difference in KD against LIGIIIα▵ZnF [4]: 1000 fold
Substance: LIGIIIα▵BRCT (1–755 amino acids) (domain or fragment)

Kd [8]: 10 nM
Substance: X-ray repair crosscomplementing protein 1 (XRCC1), his-tag (from UniProt P18887 1-633) (natural protein; other documents disagree on this pair)

Kd [9]: 20 nM
Substance: poly (ADP-ribose) polymerase 1 (PARP1), his-tag (from UniProt P09874 1-1014) (enzyme)

Continued, substance first:

Substance: His-tag LIG1 full-length (DNA ligase 1, 1–919 amino acids) (from UniProt P18858 1-919) (enzyme)
Kd [5]: 740 nM

Substance: His-tag LIGIIIα full-length (DNA ligase IIIα, 1–922 amino acids) (enzyme)
Kd [5]: 500 nM

Substance: LIGIIIα△BRCT (1–755 amino acids), LIGIIIα lacking the BRCT domain (domain or fragment)
Kd [6]: 1050 nM

Substance: LIGIIIα△ZnF (170–922 amino acids), LIGIIIα lacking the zinc-finger domain (domain or fragment)
Kd [7]: 27 nM
Kd [6]: 4.9 nM

Substance: LIGIIIα▵ZnF (170–922 amino acids) (domain or fragment)
Kd [1]: 30 nM
